Experimental data taken from patent US20240174744A1 (SCIRHOM, published 2024).

T1: miR2-FL-WT-T7 (mouse iRhom2 full length wild type C-terminally tagged with 3 consecutive copies of the T7 … (mouse, UniProt Q80WQ6 1-827))
T1 construct: also called mouse iRhom2 variant expressed by MEF-DKO-miR2-FL-WT-T7 cells
T1 sequence: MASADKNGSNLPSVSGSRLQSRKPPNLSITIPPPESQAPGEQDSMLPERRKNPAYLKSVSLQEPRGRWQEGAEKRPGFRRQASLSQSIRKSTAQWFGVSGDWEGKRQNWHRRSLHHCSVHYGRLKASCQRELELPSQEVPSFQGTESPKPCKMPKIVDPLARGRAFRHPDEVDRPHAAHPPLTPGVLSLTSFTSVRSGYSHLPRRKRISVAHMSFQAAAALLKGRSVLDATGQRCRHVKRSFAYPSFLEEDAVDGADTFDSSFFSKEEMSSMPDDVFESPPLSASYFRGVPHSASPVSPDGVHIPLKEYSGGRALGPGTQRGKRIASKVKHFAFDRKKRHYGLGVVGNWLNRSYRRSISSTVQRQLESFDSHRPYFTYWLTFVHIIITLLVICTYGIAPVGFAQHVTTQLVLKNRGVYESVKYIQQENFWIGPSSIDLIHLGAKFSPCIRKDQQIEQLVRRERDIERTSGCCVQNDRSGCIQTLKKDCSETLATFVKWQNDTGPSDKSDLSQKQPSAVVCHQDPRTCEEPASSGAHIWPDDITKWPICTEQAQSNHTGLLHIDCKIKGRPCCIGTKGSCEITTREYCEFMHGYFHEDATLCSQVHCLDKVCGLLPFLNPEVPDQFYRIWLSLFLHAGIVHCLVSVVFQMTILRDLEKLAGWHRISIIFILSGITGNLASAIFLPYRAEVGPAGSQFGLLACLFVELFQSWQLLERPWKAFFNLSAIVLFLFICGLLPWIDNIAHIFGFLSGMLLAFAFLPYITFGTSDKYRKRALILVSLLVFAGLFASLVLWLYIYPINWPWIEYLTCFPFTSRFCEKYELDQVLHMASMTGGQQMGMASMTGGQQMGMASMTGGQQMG

T2: hiR1-FL-WT-T7 (human iRhom1 full length wild type C-terminally tagged with 3 consecutive copies of the T7 … (human, UniProt Q96CC6 1-855))
T2 construct: also called human iRhom1 variant expressed by MEF-DKO-hiR1-FL-WT-T7 cells
T2 sequence: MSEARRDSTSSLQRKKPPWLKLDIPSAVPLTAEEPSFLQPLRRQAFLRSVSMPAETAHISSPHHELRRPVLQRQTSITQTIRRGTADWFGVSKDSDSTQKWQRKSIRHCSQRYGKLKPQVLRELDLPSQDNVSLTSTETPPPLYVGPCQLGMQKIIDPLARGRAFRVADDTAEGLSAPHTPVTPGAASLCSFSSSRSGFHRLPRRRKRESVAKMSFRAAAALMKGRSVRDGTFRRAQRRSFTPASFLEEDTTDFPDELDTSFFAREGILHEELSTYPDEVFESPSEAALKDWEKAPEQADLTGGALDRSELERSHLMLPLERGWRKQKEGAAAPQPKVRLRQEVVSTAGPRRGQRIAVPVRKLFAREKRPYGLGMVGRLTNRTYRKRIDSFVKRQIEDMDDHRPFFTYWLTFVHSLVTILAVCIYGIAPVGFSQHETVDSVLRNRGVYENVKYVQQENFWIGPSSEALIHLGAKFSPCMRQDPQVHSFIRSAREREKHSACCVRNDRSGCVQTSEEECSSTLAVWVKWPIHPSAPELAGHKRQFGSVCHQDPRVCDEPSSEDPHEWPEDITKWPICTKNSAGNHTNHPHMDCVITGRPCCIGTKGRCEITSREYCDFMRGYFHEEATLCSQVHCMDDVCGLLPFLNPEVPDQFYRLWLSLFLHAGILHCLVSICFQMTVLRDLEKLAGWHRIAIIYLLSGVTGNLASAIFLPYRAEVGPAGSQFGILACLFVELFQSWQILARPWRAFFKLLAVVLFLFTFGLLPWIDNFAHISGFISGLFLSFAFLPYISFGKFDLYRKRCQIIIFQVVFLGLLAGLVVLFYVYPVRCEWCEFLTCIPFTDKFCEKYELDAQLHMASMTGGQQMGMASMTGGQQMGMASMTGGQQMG


Assays:
[1] = target: T1, miR2-FL-WT-T7 (mouse iRhom2 full length …); assay: FACS on MEF-DKO-miR2-FL-WT-T7 cells
[2] = target: T1, miR2-FL-WT-T7 (mouse iRhom2 full length …); assay: FACS, MEF-DKO-miR2-FL-WT-T7 cells
Method: In brief, immortalized MEF-DKO-EV control cells, MEF-DKO-hiR2-FL-WT-T7 cells and MEF-DKO-miR2-FL-WT-T7 cells were harvested with 10 mM EDTA in PBS, washed and resuspended in FACS buffer (PBS, 3% FBS, 0.05% sodium azide), and seeded in Nunc U-bottom 96-well plates (Thermo Fisher Scientific, USA) at approximately 3×10⁵ cells per well. To pellet cells and remove supernatants, the plates were centrifuged at 1,500 rpm and 4° C. for 3 minutes. For primary staining, cells were resuspended in 100 μl per well of either FACS buffer alone (controls), mouse monoclonal anti-T7 IgG (Merck Millipore, USA) at 3 μg/ml FACS buffer or the purified antibodies 3, 5, 16, 22, 34, 42, 43, 44, 48, and 50 of the present disclosure also at 3 μg/ml FACS buffer and incubated on ice for 1 hour. Afterwards, plates were centrifuged at 1,500 rpm and 4° C. for 3 minutes and washed twice with 200 μl per well of FACS buffer. For secondary staining, cells were spun down and resuspended in 100 μl per well of PE-conjugated goat anti-mouse IgG F(ab′)2 detection fragment (Dianova, Germany) diluted 1:100 in FACS buffer. Protected from light, the cell suspensions were incubated on ice for 1 hour. […] Finally, cells were resuspended in 150 μl per well of FACS buffer and analyzed using a BD Accuri™ C6 Plus flow cytometer (Becton Dickinson, Germany).

[3] = target: T2, hiR1-FL-WT-T7 (human iRhom1 full length …); assay: FACS, MEF-DKO-hiR1-FL-WT-T7 cells

Row | Binder | binding result [1] | binding result [2] | binding result [3]
1 | antibody 3 (antibody, V domains shown, Mouse IgG, kappa light chain; also called clone #3; purified antibody 3) VH: QVTLKESGPGILQPSQTLSLTCSFSGFSLTTFAMGIGWVRQPSGKGLEWLAHIWWDGEKYNNPVLKSRLTISKDTSKNQVFLRIANVDTPDTATYYCARISSIYYIIDNWGQGTSVTVSS VL: DIVLTQSPATLSVTPGHSVSLSCRASQSISNNLHWYQKKSHESPRLLIKYVSQSISGIPSRFSGSGSGTDFTLSINSVETEDFGMYFCQQSYNWPLTFGAGTKLELK | no binding (tested: 3 µg/ml) | – | –
2 | antibody 48 (antibody, V domains shown, Mouse IgG, kappa light chain; also called clone #48; purified antibody 48) VH: QVQLQQSGTELVRPGTSVKVSCKASGYAFTNYLIEWVKQRPGQGLEWIGVINPGSGFTKYNEKFKGKATLTADKSSSTVYMHLSSLTSEDSAVYFCARGLYRAMDYWGQGTSVTVSS VL: DIQMTQSPASQSASLGESVTITCLASQTIATWLAWYQQKPGKSPQLLIYGATTLADGVPSRFSGGGSGTKFSFKISSLQAEDFVSYYCQQLYSTPYTFGGGTKLEIK | – | no binding (tested: 3 µg/ml) | no binding (tested: 3 µg/ml)
